Measured values reported in PMC4258549 (Journal of immunology (Baltimore, Md. : 1950), 2014).

Legend:
[1] = molecular target: T1, biotinylated C4b (human, biotin through Maleimide-PEG2-Biotin (residue not stated)); test: AlphaScreen or HTRF
[2] = molecular target: T1, biotinylated C4b; test: SPR

B1: Eap23 (Eap fragment of domains 2 and 3) (domain or fragment)
chain: ANVQVPYTITVNGTSQNILSNLTFNKNQNISYKDLEGKVKSVLESNRGITDVDLRLSKQAKYTVNFKNGTKKVIDLKSGIYTANLINSSDIKSININVDTKKHIENKAKRNYQVPYSINLNGTSTNILSNLSFSNKPWTNYKNLTSQIKSVLKHDRGISEQDLKYAKKAYYTVYFKNGGKRILQLNSKNYTANLVHAKDVKRIEITVKTGTKAKADRYV
In the case of B1, the Kd [1] is reported as 293 ± 38 nM.

B2: Eap12 (Eap fragment of domains 1 and 2) (domain or fragment)
chain: GHSNIQIPYTITVNGTSQNILSSLTFNKNQNISYKDIENKVKSVLYFNRGISDIDLRLSKQAEYTVHFKNGTKRVIDLKSGIYTADLINTSDIKAISVNVDTKKQPKDKAKANVQVPYTITVNGTSQNILSNLTFNKNQNISYKDLEGKVKSVLESNRGITDVDLRLSKQAKYTVNFKNGTKKVIDLKSGIYTANLINSSDIKSININVDTKKHIENKAKR
In the case of B2, the “fold weaker binding than Eap” value [1] is reported as ~100 fold.

B3: Eap34 (Eap fragment of domains 3 and 4) (domain or fragment)
chain: NYQVPYSINLNGTSTNILSNLSFSNKPWTNYKNLTSQIKSVLKHDRGISEQDLKYAKKAYYTVYFKNGGKRILQLNSKNYTANLVHAKDVKRIEITVKTGTKAKADRYVPYTIAVNGTSTPILSKLKISNKQLISYKYLNDKVKSVLKSERGISDLDLKFAKQAKYTVYFKNGKKQVVNLKSDIFTPNLFSAKDIKKIDIDVKQYTKSKKK
For B3, the IC50 [2] was ~870 nM and the Kd [1] was 525 ± 65 nM.
